The text below walks through data of paper PMC10933270, “The eukaryotic-like characteristics of small GTPase, roadblock and TRAPPC3 proteins from Asgard archaea” (Communications Biology, 2024).

Assay [1] addresses T1, Thor-Rab (Candidatus Thorarchaeota archaeon SMTZ1-45, UniProt A0A135VL07).
T1 construct: codon-optimized gene in pSY5, N-terminal His8 tag removed by HRV 3C; E. coli expression; naturally lacks the C-terminal cysteine extension; two molecules in the asymmetric unit
T1 sequence (A0A135VL07 1-182): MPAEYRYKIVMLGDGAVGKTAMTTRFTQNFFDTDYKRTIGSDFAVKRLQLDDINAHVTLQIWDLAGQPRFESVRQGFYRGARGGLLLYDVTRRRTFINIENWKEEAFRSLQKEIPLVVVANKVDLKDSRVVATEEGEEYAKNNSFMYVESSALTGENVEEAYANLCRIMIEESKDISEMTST
Description: X-ray crystallography, co-crystal without Mg2+ ([…] Å) and soak with Mg2+ ([…] Å). The conditions noted are these: co-crystal 10 mM GTPγS, one copy mixed GDP/GTPγS, second copy full GTPγS; soak of GDP crystal with GTPγS and MgCl2; pH 5.5; nucleotide-binding site.

In assay [2] the target is T1, Thor-Rab. Briefly: phosphate release assay (EnzChek), GTP hydrolysis. The conditions noted are these: 1 mM GTP, 2 mM MgCl2, 20 mM HEPES pH 7.5, 150 mM NaCl, 25 °C, 2 h; no GAP or GEF; heat-denatured control. It counts as biochemical.
The next assay has as its target T2, Rab11B (Homo sapiens, UniProt Q15907).
T2 construct: codon-optimized gene in pSY5, N-terminal His8 tag with HRV 3C site (tag removed); E. coli expression
T2 sequence (Q15907 1-218): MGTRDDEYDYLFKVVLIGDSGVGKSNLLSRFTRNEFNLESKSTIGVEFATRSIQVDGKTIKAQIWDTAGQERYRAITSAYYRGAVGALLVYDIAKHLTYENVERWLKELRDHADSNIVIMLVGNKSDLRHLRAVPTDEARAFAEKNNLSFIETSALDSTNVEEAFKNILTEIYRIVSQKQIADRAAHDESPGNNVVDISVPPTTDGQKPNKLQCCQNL
Description: phosphate release assay (EnzChek), GTP hydrolysis. It counts as biochemical. As to conditions: 1 mM GTP, 2 mM MgCl2, 20 mM HEPES pH 7.5, 150 mM NaCl, 25 °C, 2 h; no GAP or GEF; heat-denatured control.

For assay [3], the target named is MKD1-RB, roadblock (RB) protein from Loki MKD1 (Candidatus Prometheoarchaeum syntrophicum strain MK-D1). Description: crystal structure; MKD1-RB crystals in 100 mM MES, pH 6.0, 250 mM zinc acetate dihydrate, 6% wt/vol PEG 3000, 20 °C; solved using the Thor-RB structure.
Assay [4] concerns the target Odin-RBLC7, truncated roadblock (RBLC7) protein from Odin LCB_4 (Odinarchaeota LCB_4). Briefly: crystal structure; Odin-RBLC7 crystals in 200 mM MgSO4, 20% PEG 4000, 10% glycerol, 20 °C; molecular replacement with dynein DLRB1 (PDB 3L7H).
The target in assay [5] is SMTZ1-45 Thor-TRAPPC3, TRAPPC3-like protein from Thor SMTZ1-45 (Candidatus Thorarchaeota archaeon SMTZ1-45). Description: crystal structure; Thor-TRAPPC3 crystals in 100 mM HEPES, pH 7.5, 250 mM magnesium formate-dihydrate, 18% wt/vol PEG3350, 20 °C; molecular replacement with the AB25 Thor-TRAPPC3 model (7YH2).
Assay [6] concerns the target Thor-RB, predicted roadblock (RB) protein from Thor SMTZ1-45 (Candidatus Thorarchaeota archaeon SMTZ1-45). Briefly: crystal structure; Thor-RB crystals in 100 mM sodium acetate trihydrate, pH 5.0, 200 mM LiCl, 16% wt/vol PEG 6000, 20 °C; molecular replacement with MglB (PDB 3T1S).

Take `Nc1nc2c(ncn2[C@@H]2O[C@H](COP(=O)(O)OP(=O)(O)OP(O)(O)=S)[C@@H](O)[C@H]2O)c(=O)[nH]1` [GTP-γS]: at Thor-Rab [1], the “X-ray crystallography, co-crystal without Mg2+ (1.75 Å) and soak with Mg2+ (1.95)” value is listed as “full occupancy for GTP-γS in the second copy”.

On to `Nc1nc2c(ncn2[C@@H]2O[C@H](COP(=O)(O)OP(=O)(O)OP(=O)(O)O)[C@@H](O)[C@H]2O)c(=O)[nH]1` [GTP], for which the “phosphate release assay (EnzChek), GTP hydrolysis” value at Thor-Rab [2] was “SMTZ1-45 Thor-Rab generated similar levels of phosphate in comparison to human Rab11B”; at Rab11B, “The GTPase activity of human Rab11B and SMTZ1-45 Thor-Rab were measured”.

Regarding “MKD1-RB, roadblock (RB) protein from Loki MKD1 (natural protein)”, the stoichiometry N (usually the number of molecules, sites or subunits per partner or assembly) in assay [3] is 2.

In the case of “Odin-RBLC7, truncated roadblock (RBLC7) protein from Odin LCB_4 (natural protein)”, in assay [4], the stoichiometry N stood at 2.

With “SMTZ1-45 Thor-TRAPPC3, TRAPPC3-like protein from Thor SMTZ1-45 (natural protein)”, in assay [5], the stoichiometry N is 2.

In the case of “Thor-RB, predicted roadblock (RB) protein from Thor SMTZ1-45 (natural protein)”, the stoichiometry N in assay [6] was 2.
